Test results as given in patent US20200010570A1 (SICHUAN KELUN BIOTECH BIOPHARMACEUTICAL, published 2020).

B1: monoclonal antibody 5F10 (antibody, V domains shown)
VH: EVQLQQSGAELVKPGASVKLSCTASGFDIKDTYIHWVKQRPEQGLEWIGRIDPADGNTRYDPKFQDKTTITTDTSSNTAHLQLSSLTSEDTAVYYCARGLGAWFASWGQGTLVTVSA
VL: DIQMTQTTSSLSASLGDRVTISCRASQDITNSLNWYQQKPDGTVKLLIHYTSRLHSGVPSRFSGSGSGTDYSLTISNLEQEDIATYFCQQGHTLPPTFGGGTKLEI
notes: Murine antibody from a hybridoma
B2: monoclonal antibody 5C10 (antibody, V domains shown)
VH: QVQLKESGPGLVAPSQNLSITCTVSGFSLSNYDISWIRQPPGKGLEWLGVIWTGGATNYNSAFMSRLSISRDNSKSQVFLKMNSLQTDDTAIYYCVRDSNYRYDEPFTYWGQGTLVTVSA
VL: DILLTQSPAILSVSPGERVSLSCRASQSIGTNIHWFQQRTNGSPRLLIKYASESISGIPSRFSGSGSGTDFTLSINSVESEDIADYYCQQSNSWPYTFGGGTKLEI
notes: Murine antibody purified from hybridoma supernatant; also called antibody of hybridoma cell strain LT005
B3: monoclonal antibody 9F6 (antibody, V domains shown)
VH: EVQLQQSGAELVKPGASVKLSCTASGFNIKDTYMYWVKQRPEQGLEWIGRIDPANGNTKYDPKFQGKATITADTSANTAYLQLSSLTSEDTAVYYCSRGPPGGIGEYIYAMDYWGQGTSVTVSS
VL: QIVLTQSPAIMSASLGERVTMTCTASSSVSSSYLHWYQQKPGSSPKLWIYSTSNLASGVPARFSGSGSGTSYSLTISSMEAEDAATYYCHQYHRSPPTFGGGTKLEI
notes: as for B1

How the values were obtained:
[1] = target: T1, PDL-1 on the cell surface (293T cells expressing PDL-1) (human, UniProt Q9NZQ7 19-290); test: FACS, cells expressing PDL-1, method of Example 8
[2] = target: T1, PDL-1 on the cell surface (293T cells …); test: FACS, cells expressing PDL-1, method of Example 8; column 'Cell affinity by FACS'
[3] = target: T2, recombinant protein PDL-1ECD-mFc (human, UniProt Q9NZQ7 19-238); test: competitive ELISA, method 'described in Example 13'; column 'Affinity by competitive ELISA (nM)'; competitor not given
T2 construct: also called PDL-1-mFc; human PDL-1 (coated antigen); not shown: a TEV site before it is implied by the TEV digestion of

[4] = target: T2, recombinant protein PDL-1ECD-mFc; test: indirect ELISA, method of Example 9; column 'Affinity by ELISA (nM)'
[5] = target: T3, PDL-1 antigen (PDL-1-mFc digested with TEV protease) (human, UniProt Q9NZQ7 19-238); test: Fortebio, PDL-1 on sensor, antibody then PD-1 10 µg/ml; competitor PD-1
T3 construct: the whole entry is named
T3 sequence (Q9NZQ7 19-238 limits assumed): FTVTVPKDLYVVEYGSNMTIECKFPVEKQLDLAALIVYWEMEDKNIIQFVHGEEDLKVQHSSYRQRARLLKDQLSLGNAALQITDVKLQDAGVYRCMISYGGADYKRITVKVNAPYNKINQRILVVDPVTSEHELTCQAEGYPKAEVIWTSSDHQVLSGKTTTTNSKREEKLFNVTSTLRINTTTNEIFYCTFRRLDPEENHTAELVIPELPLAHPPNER

T1 sequence (Q9NZQ7 19-290 limits assumed): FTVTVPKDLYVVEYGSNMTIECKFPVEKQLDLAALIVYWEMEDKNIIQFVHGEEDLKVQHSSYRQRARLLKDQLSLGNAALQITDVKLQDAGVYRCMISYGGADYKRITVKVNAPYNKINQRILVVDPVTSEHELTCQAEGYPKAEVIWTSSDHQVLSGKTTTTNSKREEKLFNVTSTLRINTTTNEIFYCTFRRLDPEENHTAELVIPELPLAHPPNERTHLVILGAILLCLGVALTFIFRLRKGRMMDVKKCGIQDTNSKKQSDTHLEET
T2 sequence (Q9NZQ7 19-238): as the sequence (Q9NZQ7 19-238 limits assumed) above

Row | Binder | positive % [1] [%] | EC50 [2] [nM] | EC50 [3] [nM] | EC50 [4] [nM] | EC50 [5] [nM]
1 | B1 | 60.3 | 1.48 | 0.838 | 0.029 | 
2 | B2 | 100 | 2.3 | 0.785 | 0.031 | 0.817
3 | B3 | 80.2 | 2.93 | 0.767 | 0.029 | 
